The record followed here is publication PMC8571288 (Nature Communications, 2021).

For test [1], the target named is T1, CTC1Δ700N-ST complex (CTC1 lacking its N-terminal 700 residues, with STN1 and TEN1-His6) (human, UniProt Q2NKJ3 701-1217; Q9H668 1-368; Q86WV5 1-123).
T1 construct: CTC1, human, with the N-terminal 700 residues removed (CTC1Δ700N); STN1, human, subunit of the CST complex; TEN1, human, subunit of the CST complex; also called CTC1∆700N-ST; not shown: His6, C-terminal, kept; copies: + +
T1 sequence (looked up) 1: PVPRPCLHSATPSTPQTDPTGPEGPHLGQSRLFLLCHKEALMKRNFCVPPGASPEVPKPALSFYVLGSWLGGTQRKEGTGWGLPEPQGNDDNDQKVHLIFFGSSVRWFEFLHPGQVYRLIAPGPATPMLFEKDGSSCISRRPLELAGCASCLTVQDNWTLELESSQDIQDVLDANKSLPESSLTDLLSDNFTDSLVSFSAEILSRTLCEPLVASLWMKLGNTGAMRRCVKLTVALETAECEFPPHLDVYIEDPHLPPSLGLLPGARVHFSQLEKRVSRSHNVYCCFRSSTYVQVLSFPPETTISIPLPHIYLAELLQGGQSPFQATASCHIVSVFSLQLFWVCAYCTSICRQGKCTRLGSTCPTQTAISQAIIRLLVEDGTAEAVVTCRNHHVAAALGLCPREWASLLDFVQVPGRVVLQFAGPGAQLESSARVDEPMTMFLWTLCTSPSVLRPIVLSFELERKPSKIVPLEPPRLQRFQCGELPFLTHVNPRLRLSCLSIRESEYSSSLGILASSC
T1 sequence (looked up) 2: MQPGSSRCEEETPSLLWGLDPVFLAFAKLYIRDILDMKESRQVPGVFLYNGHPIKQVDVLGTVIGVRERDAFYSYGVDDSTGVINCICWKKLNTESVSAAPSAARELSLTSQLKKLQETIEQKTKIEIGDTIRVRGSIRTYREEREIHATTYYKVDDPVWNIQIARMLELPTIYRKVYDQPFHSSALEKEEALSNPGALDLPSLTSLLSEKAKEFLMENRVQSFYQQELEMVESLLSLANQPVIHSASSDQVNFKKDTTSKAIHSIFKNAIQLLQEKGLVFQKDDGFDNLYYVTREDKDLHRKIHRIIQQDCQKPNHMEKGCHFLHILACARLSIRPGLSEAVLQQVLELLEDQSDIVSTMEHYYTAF
T1 sequence (looked up) 3: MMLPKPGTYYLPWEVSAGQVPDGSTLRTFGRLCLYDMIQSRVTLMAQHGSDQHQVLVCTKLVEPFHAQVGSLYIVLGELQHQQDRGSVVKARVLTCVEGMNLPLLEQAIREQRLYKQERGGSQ
The test is described as follows: pull-down; 1 μM CST or CTC1Δ700N-ST (His6 on TEN1) with 1 μM RAD51, RecA or RPA, 20 min 37 °C, buffer D (35 mM Tris-HCl pH 7.5, 10% glycerol, 0.01% Igepal, 1 mM 2-mercaptoethanol) with 5 mM imidazole and 50 mM KCl; for RPA without DNA or with 2 μM 30-nt ssDNA; captured on His-Tag Dynabeads; SDS-PAGE, Coomassie. As to conditions: both partners purified.

For test [2], the target named is T2, human CST complex (Flag-CTC1-STN1-TEN1-His6) (human, UniProt Q2NKJ3 1-1217; Q9H668 1-368; Q86WV5 1-123).
T2 construct: CTC1, human, subunit of the CST complex; STN1, human, subunit of the CST complex; TEN1, human, subunit of the CST complex; also called wild-type CST; not shown: Flag, N-terminal, kept; His6, C-terminal, kept; copies: + +
The description is as above. The settings on record: both partners purified.

B1: human RAD51 (natural protein, UniProt Q06609 1-339, looked up)
chain: MAMQMQLEANADTSVEEESFGPQPISRLEQCGINANDVKKLEEAGFHTVEAVAYAPKKELINIKGISEAKADKILAEAAKLVPMGFTTATEFHQRRSEIIQITTGSKELDKLLQGGIETGSITEMFGEFRTGKTQICHTLAVTCQLPIDRGGGEGKAMYIDTEGTFRPERLLAVAERYGLSGSDVLDNVAYARAFNTDHQTQLLYQASAMMVESRYALLIVDSATALYRTDYSGRGELSARQMHLARFLRMLLRLADEFGVAVVITNQVVAQVDGAAMFAADPKKPIGGNIIAHASTTRLYLRKGRGETRICKIYDSPCLPEAEAMFAINADGVGDAKD
notes: RAD51 recombinase, human
Regarding B1, the binding result in test [1] and in test [2] was “binds” each time.
